Data as given in US7067646 (Dana-Farber, dated 2006).
Each block holds one binder with its values, some of them ahead of it.

Legend:
[1] = molecular target: T1, MTAF600 (microtubule associated factor 600) (human, UniProt Q5T4S7 1-5183); experiment: anti-FLAG immunoprecipitation of f:RB from HeLa nuclear extract, SDS-PAGE
T1 construct: Native endogenous protein of HeLa nuclear extracts (5183 residues); also called MT-associated factor (MTAF) 600; 600 kDa subunit

[2] = molecular target: T1, MTAF600 (microtubule associated factor …); experiment: co-immunoprecipitation from HeLa extract, immunoblot
[3] = molecular target: endogenous RB family proteins; experiment: cell-based or functional assay
[4] = molecular target: T1, MTAF600 (microtubule associated factor …); experiment: GST pull-down from HeLa nuclear extract, immunoblot
[5] = molecular target: T1, MTAF600 (microtubule associated factor …); experiment: MTAF600 immobilised on matrix incubated with GST-RB, immunoblot

T1 sequence (Q5T4S7 other isoform, or with tags, fused parts or gaps limits assumed): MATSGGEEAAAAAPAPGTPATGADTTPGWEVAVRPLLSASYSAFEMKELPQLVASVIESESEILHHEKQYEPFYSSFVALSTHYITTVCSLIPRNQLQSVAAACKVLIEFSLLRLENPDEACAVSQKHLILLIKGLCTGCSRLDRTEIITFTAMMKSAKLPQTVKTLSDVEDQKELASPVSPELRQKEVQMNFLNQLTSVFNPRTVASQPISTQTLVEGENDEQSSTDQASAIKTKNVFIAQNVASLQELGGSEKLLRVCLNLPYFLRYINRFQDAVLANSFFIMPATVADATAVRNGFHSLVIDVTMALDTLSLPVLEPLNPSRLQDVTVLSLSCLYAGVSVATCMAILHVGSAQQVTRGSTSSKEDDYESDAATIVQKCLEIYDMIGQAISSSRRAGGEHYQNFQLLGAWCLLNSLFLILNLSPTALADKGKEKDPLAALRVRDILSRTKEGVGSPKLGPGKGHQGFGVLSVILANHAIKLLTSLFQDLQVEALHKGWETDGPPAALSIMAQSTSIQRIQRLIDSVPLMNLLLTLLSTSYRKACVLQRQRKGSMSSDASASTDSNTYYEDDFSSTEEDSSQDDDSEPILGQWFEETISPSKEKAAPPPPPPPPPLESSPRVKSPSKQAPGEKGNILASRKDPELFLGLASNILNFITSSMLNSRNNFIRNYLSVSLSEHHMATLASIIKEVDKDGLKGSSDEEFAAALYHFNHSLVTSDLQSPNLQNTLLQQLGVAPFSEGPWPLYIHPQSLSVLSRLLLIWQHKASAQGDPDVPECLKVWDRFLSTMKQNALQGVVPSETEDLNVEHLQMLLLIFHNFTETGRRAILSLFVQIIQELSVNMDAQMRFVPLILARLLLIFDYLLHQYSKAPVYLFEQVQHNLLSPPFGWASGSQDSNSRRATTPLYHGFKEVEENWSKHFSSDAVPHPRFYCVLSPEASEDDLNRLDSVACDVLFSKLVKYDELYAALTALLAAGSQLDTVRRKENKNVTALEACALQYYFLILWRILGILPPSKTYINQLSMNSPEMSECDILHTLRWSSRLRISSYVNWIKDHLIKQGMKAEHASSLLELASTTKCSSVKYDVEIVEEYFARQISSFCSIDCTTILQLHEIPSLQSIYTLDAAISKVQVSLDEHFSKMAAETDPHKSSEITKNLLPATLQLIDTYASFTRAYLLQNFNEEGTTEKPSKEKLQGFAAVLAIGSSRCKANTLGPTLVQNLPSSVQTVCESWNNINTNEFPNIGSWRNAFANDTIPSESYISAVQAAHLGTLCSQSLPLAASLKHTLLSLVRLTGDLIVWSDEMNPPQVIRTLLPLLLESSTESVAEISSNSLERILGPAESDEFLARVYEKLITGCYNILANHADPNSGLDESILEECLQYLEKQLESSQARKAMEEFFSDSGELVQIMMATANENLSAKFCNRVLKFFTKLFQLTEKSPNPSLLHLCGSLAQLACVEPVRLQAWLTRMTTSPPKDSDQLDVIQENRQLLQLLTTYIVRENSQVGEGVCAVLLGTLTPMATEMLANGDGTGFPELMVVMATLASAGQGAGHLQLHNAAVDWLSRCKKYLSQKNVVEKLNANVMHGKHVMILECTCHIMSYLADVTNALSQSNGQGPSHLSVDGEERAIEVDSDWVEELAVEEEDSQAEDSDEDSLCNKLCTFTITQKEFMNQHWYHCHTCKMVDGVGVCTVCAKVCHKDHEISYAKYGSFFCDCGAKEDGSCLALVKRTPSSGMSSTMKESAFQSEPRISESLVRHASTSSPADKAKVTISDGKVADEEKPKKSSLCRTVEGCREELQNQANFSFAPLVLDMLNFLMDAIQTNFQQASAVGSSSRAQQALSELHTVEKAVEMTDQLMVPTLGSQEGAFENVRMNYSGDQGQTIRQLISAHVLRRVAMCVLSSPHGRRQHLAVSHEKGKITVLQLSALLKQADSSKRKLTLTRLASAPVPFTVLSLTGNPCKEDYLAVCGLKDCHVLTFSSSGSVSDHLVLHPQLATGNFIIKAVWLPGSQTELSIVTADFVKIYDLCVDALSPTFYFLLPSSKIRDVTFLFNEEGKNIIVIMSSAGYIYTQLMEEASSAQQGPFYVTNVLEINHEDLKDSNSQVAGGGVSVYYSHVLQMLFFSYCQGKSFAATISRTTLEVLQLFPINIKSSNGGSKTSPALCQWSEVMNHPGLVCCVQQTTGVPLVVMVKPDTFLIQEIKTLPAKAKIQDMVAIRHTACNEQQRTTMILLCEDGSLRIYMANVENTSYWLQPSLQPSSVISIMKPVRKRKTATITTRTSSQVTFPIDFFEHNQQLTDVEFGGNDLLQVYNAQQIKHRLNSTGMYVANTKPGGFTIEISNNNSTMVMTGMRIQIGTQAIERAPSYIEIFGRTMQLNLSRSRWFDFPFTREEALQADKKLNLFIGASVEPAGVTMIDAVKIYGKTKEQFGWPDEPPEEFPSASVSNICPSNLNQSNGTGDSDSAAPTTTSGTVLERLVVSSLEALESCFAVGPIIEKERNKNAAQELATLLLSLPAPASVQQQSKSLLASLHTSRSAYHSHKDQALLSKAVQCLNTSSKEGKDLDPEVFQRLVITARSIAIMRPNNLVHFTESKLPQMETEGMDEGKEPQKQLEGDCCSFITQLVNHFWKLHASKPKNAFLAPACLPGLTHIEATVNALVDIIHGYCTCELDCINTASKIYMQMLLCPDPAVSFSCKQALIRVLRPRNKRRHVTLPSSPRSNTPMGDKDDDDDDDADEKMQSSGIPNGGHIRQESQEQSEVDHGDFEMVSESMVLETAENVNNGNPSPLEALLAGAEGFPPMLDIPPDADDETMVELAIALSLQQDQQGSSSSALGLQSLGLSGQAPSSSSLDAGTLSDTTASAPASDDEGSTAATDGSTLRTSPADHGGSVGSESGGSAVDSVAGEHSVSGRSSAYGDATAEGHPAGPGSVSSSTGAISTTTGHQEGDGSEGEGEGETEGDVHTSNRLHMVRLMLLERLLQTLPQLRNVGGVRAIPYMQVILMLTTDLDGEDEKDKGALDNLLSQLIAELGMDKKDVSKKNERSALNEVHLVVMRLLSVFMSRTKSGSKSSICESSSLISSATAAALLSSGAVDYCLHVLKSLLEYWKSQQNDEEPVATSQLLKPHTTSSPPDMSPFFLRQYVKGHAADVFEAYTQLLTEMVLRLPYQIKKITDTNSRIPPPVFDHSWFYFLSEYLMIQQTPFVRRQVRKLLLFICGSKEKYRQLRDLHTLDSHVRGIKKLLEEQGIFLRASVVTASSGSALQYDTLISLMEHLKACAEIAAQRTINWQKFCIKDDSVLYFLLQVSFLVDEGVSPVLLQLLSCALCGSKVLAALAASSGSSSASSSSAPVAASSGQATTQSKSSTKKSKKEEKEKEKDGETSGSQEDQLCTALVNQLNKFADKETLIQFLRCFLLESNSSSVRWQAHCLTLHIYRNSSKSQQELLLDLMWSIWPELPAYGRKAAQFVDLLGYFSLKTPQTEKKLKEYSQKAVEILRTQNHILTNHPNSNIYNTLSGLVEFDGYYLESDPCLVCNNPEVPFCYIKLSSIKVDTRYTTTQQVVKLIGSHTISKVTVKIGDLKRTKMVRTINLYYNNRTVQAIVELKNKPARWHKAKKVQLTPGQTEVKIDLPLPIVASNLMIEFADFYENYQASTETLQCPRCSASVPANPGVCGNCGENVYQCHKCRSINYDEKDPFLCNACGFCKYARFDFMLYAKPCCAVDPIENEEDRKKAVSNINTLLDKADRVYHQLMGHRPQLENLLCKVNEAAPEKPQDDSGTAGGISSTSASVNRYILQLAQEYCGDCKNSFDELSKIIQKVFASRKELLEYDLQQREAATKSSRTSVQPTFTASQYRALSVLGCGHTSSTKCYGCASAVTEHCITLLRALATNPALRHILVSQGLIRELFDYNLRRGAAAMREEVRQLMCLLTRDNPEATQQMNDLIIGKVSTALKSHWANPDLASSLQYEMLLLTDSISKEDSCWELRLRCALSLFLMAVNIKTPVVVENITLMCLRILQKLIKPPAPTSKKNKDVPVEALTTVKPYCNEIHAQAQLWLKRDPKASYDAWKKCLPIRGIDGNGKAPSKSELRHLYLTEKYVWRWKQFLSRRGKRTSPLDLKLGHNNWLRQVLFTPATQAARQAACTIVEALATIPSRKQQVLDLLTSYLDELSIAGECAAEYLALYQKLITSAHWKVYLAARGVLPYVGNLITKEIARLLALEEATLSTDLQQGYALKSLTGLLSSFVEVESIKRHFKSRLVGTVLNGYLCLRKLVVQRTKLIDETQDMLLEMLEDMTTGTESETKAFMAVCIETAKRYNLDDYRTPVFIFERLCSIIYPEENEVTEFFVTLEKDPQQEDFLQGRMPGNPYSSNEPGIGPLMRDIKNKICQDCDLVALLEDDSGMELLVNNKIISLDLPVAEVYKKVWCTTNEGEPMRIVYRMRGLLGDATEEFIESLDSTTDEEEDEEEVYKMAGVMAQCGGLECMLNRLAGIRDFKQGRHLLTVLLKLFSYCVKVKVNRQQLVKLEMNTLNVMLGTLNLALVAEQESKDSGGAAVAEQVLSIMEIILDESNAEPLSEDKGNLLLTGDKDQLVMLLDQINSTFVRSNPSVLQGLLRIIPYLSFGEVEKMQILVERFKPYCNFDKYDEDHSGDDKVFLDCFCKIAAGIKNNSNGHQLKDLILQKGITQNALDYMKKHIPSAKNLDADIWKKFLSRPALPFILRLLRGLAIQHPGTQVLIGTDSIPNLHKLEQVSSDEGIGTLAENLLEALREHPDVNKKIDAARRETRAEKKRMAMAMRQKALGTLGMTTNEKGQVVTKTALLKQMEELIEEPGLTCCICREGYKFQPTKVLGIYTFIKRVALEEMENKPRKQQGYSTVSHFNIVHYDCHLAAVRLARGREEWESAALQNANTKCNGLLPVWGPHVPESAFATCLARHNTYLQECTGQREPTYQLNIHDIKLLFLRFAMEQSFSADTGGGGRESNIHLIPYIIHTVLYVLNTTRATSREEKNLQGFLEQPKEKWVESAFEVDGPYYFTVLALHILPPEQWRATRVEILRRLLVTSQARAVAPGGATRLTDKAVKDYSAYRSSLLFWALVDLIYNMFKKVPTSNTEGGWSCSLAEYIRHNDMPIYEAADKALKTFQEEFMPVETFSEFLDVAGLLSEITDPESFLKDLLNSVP

binding result [1]: binds
B1: FLAG-epitope-tagged RB (tag at the N-terminus) (other, UniProt P06400 1-928, looked up, not shown: small tags and cut ends)
chain: MPPKTPRKTAATAAAAAAEPPAPPPPPPPEEDPEQDSGPEDLPLVRLEFEETEEPDFTALCQKLKIPDHVRERAWLTWEKVSSVDGVLGGYIQKKKELWGICIFIAAVDLDEMSFTFTELQKNIEISVHKFFNLLKEIDTSTKVDNAMSRLLKKYDVLFALFSKLERTCELIYLTQPSSSISTEINSALVLKVSWITFLLAKGEVLQMEDDLVISFQLMLCVLDYFIKLSPPMLLKEPYKTAVIPINGSPRTPRRGQNRSARIAKQLENDTRIIEVLCKEHECNIDEVKNVYFKNFIPFMNSLGLVTSNGLPEVENLSKRYEEIYLKNKDLDARLFLDHDKTLQTDSIDSFETQRTPRKSNLDEEVNVIPPHTPVRTVMNTIQQLMMILNSASDQPSENLISYFNNCTVNPKESILKRVKDIGYIFKEKFAKAVGQGCVEIGSQRYKLGVRLYYRVMESMLKSEEERLSIQNFSKLLNDNIFHMSLLACALEVVMATYSRSTSQNLDSGTDLSFPWILNVLNLKAFDFYKVIESFIKAEGNLTREMIKHLERCEHRIMESLAWLSDSPLFDLIKQSKDREGPTDHLESACPLNLPLQNNHTAADMYLSPVRSPKKKGSTTRVNSTANAETQATSAFQTQKPLKSTSLSLFYKKVYRLAYLRLNTLCERLLSEHPELEHIIWTLFQHTLQNEYELMRDRHLDQIMMCSMYGICKVKNIDLKFKIIVTAYKDLPHAVQETFKRVLIKEEEYDSIIVFYNSVFMQRLKTNILQYASTRPPTLSPIPHIPRSPYKFPSSPLRIPGGNIYISPLKSPYKISEGLPTPTKMTPRSRILVSIGESFGTSEKFQKINQMVCNSDRVLKRSAEGSNPPKPLKKLRFDIEGSDEADGSKHLPGESKFQQKLAEMTSTRTRMQKQKMNDSMDTSNKEEK
notes: also called f:RB; f: RB

binding result [2]: binds
B2: hypophosphorylated RB (other, human, UniProt P06400 2-928, looked up)
chain: PPKTPRKTAATAAAAAAEPPAPPPPPPPEEDPEQDSGPEDLPLVRLEFEETEEPDFTALCQKLKIPDHVRERAWLTWEKVSSVDGVLGGYIQKKKELWGICIFIAAVDLDEMSFTFTELQKNIEISVHKFFNLLKEIDTSTKVDNAMSRLLKKYDVLFALFSKLERTCELIYLTQPSSSISTEINSALVLKVSWITFLLAKGEVLQMEDDLVISFQLMLCVLDYFIKLSPPMLLKEPYKTAVIPINGSPRTPRRGQNRSARIAKQLENDTRIIEVLCKEHECNIDEVKNVYFKNFIPFMNSLGLVTSNGLPEVENLSKRYEEIYLKNKDLDARLFLDHDKTLQTDSIDSFETQRTPRKSNLDEEVNVIPPHTPVRTVMNTIQQLMMILNSASDQPSENLISYFNNCTVNPKESILKRVKDIGYIFKEKFAKAVGQGCVEIGSQRYKLGVRLYYRVMESMLKSEEERLSIQNFSKLLNDNIFHMSLLACALEVVMATYSRSTSQNLDSGTDLSFPWILNVLNLKAFDFYKVIESFIKAEGNLTREMIKHLERCEHRIMESLAWLSDSPLFDLIKQSKDREGPTDHLESACPLNLPLQNNHTAADMYLSPVRSPKKKGSTTRVNSTANAETQATSAFQTQKPLKSTSLSLFYKKVYRLAYLRLNTLCERLLSEHPELEHIIWTLFQHTLQNEYELMRDRHLDQIMMCSMYGICKVKNIDLKFKIIVTAYKDLPHAVQETFKRVLIKEEEYDSIIVFYNSVFMQRLKTNILQYASTRPPTLSPIPHIPRSPYKFPSSPLRIPGGNIYISPLKSPYKISEGLPTPTKMTPRSRILVSIGESFGTSEKFQKINQMVCNSDRVLKRSAEGSNPPKPLKKLRFDIEGSDEADGSKHLPGESKFQQKLAEMTSTRTRMQKQKMNDSMDTSNKEEK
modifications: hypophosphorylated (sites not given)
notes: also called RB (hypo-phosphorylated)

binding result [2]: binds
B3: hyperphosphorylated RB (other, human, UniProt P06400 2-928, looked up)
chain: PPKTPRKTAATAAAAAAEPPAPPPPPPPEEDPEQDSGPEDLPLVRLEFEETEEPDFTALCQKLKIPDHVRERAWLTWEKVSSVDGVLGGYIQKKKELWGICIFIAAVDLDEMSFTFTELQKNIEISVHKFFNLLKEIDTSTKVDNAMSRLLKKYDVLFALFSKLERTCELIYLTQPSSSISTEINSALVLKVSWITFLLAKGEVLQMEDDLVISFQLMLCVLDYFIKLSPPMLLKEPYKTAVIPINGSPRTPRRGQNRSARIAKQLENDTRIIEVLCKEHECNIDEVKNVYFKNFIPFMNSLGLVTSNGLPEVENLSKRYEEIYLKNKDLDARLFLDHDKTLQTDSIDSFETQRTPRKSNLDEEVNVIPPHTPVRTVMNTIQQLMMILNSASDQPSENLISYFNNCTVNPKESILKRVKDIGYIFKEKFAKAVGQGCVEIGSQRYKLGVRLYYRVMESMLKSEEERLSIQNFSKLLNDNIFHMSLLACALEVVMATYSRSTSQNLDSGTDLSFPWILNVLNLKAFDFYKVIESFIKAEGNLTREMIKHLERCEHRIMESLAWLSDSPLFDLIKQSKDREGPTDHLESACPLNLPLQNNHTAADMYLSPVRSPKKKGSTTRVNSTANAETQATSAFQTQKPLKSTSLSLFYKKVYRLAYLRLNTLCERLLSEHPELEHIIWTLFQHTLQNEYELMRDRHLDQIMMCSMYGICKVKNIDLKFKIIVTAYKDLPHAVQETFKRVLIKEEEYDSIIVFYNSVFMQRLKTNILQYASTRPPTLSPIPHIPRSPYKFPSSPLRIPGGNIYISPLKSPYKISEGLPTPTKMTPRSRILVSIGESFGTSEKFQKINQMVCNSDRVLKRSAEGSNPPKPLKKLRFDIEGSDEADGSKHLPGESKFQQKLAEMTSTRTRMQKQKMNDSMDTSNKEEK
modifications: hyperphosphorylated (sites not given)
notes: also called P-RB

cells in S-phase at 24 hr after replating (FACS, stably transfected U2OS cells; control cells 64%) [3]: 37%
B4: FLAG-tagged MTAF600 (3910-4851), Q5T4S7 3910-4851 (protein)
chain: FDYNLRRGAAAMREEVRQLMCLLTRDNPEATQQMNDLIIGKVSTALKSHWANPDLASSLQYEMLLLTDSISKEDSCWELRLRCALSLFLMAVNIKTPVVVENITLMCLRILQKLIKPPAPTSKKNKDVPVEALTTVKPYCNEIHAQAQLWLKRDPKASYDAWKKCLPIRGIDGNGKAPSKSELRHLYLTEKYVWRWKQFLSRRGKRTSPLDLKLGHNNWLRQVLFTPATQAARQAACTIVEALATIPSRKQQVLDLLTSYLDELSIAGECAAEYLALYQKLITSAHWKVYLAARGVLPYVGNLITKEIARLLALEEATLSTDLQQGYALKSLTGLLSSFVEVESIKRHFKSRLVGTVLNGYLCLRKLVVQRTKLIDETQDMLLEMLEDMTTGTESETKAFMAVCIETAKRYNLDDYRTPVFIFERLCSIIYPEENEVTEFFVTLEKDPQQEDFLQGRMPGNPYSSNEPGIGPLMRDIKNKICQDCDLVALLEDDSGMELLVNNKIISLDLPVAEVYKKVWCTTNEGEPMRIVYRMRGLLGDATEEFIESLDSTTDEEEDEEEVYKMAGVMAQCGGLECMLNRLAGIRDFKQGRHLLTVLLKLFSYCVKVKVNRQQLVKLEMNTLNVMLGTLNLALVAEQESKDSGGAAVAEQVLSIMEIILDESNAEPLSEDKGNLLLTGDKDQLVMLLDQINSTFVRSNPSVLQGLLRIIPYLSFGEVEKMQILVERFKPYCNFDKYDEDHSGDDKVFLDCFCKIAAGIKNNSNGHQLKDLILQKGITQNALDYMKKHIPSAKNLDADIWKKFLSRPALPFILRLLRGLAIQHPGTQVLIGTDSIPNLHKLEQVSSDEGIGTLAENLLEALREHPDVNKKIDAARRETRAEKKRMAMAMRQKALGTLGMTTNEKGQVVTKTALLKQMEELIEEPGLTCCICREGYKFQPTK

binding result [4]: no binding
B5: GST-RB (379-646) (other, UniProt P06400 379-646, looked up)
chain: MNTIQQLMMILNSASDQPSENLISYFNNCTVNPKESILKRVKDIGYIFKEKFAKAVGQGCVEIGSQRYKLGVRLYYRVMESMLKSEEERLSIQNFSKLLNDNIFHMSLLACALEVVMATYSRSTSQNLDSGTDLSFPWILNVLNLKAFDFYKVIESFIKAEGNLTREMIKHLERCEHRIMESLAWLSDSPLFDLIKQSKDREGPTDHLESACPLNLPLQNNHTAADMYLSPVRSPKKKGSTTRVNSTANAETQATSAFQTQKPLKSTS
notes: Expressed in E. coli; not shown: glutathione S-transferase (GST) fusion partner of vector pGEX6P-1

binding result [4]: no binding
B6: GST-RB (379-772) (other, UniProt P06400 379-772, looked up)
chain: MNTIQQLMMILNSASDQPSENLISYFNNCTVNPKESILKRVKDIGYIFKEKFAKAVGQGCVEIGSQRYKLGVRLYYRVMESMLKSEEERLSIQNFSKLLNDNIFHMSLLACALEVVMATYSRSTSQNLDSGTDLSFPWILNVLNLKAFDFYKVIESFIKAEGNLTREMIKHLERCEHRIMESLAWLSDSPLFDLIKQSKDREGPTDHLESACPLNLPLQNNHTAADMYLSPVRSPKKKGSTTRVNSTANAETQATSAFQTQKPLKSTSLSLFYKKVYRLAYLRLNTLCERLLSEHPELEHIIWTLFQHTLQNEYELMRDRHLDQIMMCSMYGICKVKNIDLKFKIIVTAYKDLPHAVQETFKRVLIKEEEYDSIIVFYNSVFMQRLKTNILQYA
notes: as for B5

binding result [5]: binds
B7: GST-RB (379-928) (other, UniProt P06400 379-928, looked up)
chain: MNTIQQLMMILNSASDQPSENLISYFNNCTVNPKESILKRVKDIGYIFKEKFAKAVGQGCVEIGSQRYKLGVRLYYRVMESMLKSEEERLSIQNFSKLLNDNIFHMSLLACALEVVMATYSRSTSQNLDSGTDLSFPWILNVLNLKAFDFYKVIESFIKAEGNLTREMIKHLERCEHRIMESLAWLSDSPLFDLIKQSKDREGPTDHLESACPLNLPLQNNHTAADMYLSPVRSPKKKGSTTRVNSTANAETQATSAFQTQKPLKSTSLSLFYKKVYRLAYLRLNTLCERLLSEHPELEHIIWTLFQHTLQNEYELMRDRHLDQIMMCSMYGICKVKNIDLKFKIIVTAYKDLPHAVQETFKRVLIKEEEYDSIIVFYNSVFMQRLKTNILQYASTRPPTLSPIPHIPRSPYKFPSSPLRIPGGNIYISPLKSPYKISEGLPTPTKMTPRSRILVSIGESFGTSEKFQKINQMVCNSDRVLKRSAEGSNPPKPLKKLRFDIEGSDEADGSKHLPGESKFQQKLAEMTSTRTRMQKQKMNDSMDTSNKEEK
notes: Expressed in E. coli; also called large pocket domain of RB as GST fusion; not shown: glutathione S-transferase (GST) fusion partner of vector pGEX6P-1

binding result [4]: no binding
B8: GST-RB (646-928) (other, UniProt P06400 646-928, looked up)
chain: SLSLFYKKVYRLAYLRLNTLCERLLSEHPELEHIIWTLFQHTLQNEYELMRDRHLDQIMMCSMYGICKVKNIDLKFKIIVTAYKDLPHAVQETFKRVLIKEEEYDSIIVFYNSVFMQRLKTNILQYASTRPPTLSPIPHIPRSPYKFPSSPLRIPGGNIYISPLKSPYKISEGLPTPTKMTPRSRILVSIGESFGTSEKFQKINQMVCNSDRVLKRSAEGSNPPKPLKKLRFDIEGSDEADGSKHLPGESKFQQKLAEMTSTRTRMQKQKMNDSMDTSNKEEK
notes: as for B5
